Laboratory results: the supplement of paper PMC11502859
Several values for one entry are separate records, joined by “and”; a condition that tells them apart may be missing. Equal entries are not always repeated.

tested on: HEK293T; assay: median enrichment of reporter reads in eGFP-reduced (low/intermediate) vs eGFP-high sorted cells (eGFP-extension fusion abundance) (ratio); higher = stronger loss of eGFP-fusion protein abundance (more destabilising extension)
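Also: lentiviral eGFP-IRES-mCherry reporter pool sorted by FACS 96 h post-transduction, gated on mCherry-high cells, Illumina read counts normalized per million, median across four biological replicates.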

Compared with KKNQNGLR [ADGRB3], SDEHG [TMEM242] is higher in median enrichment: 0.618 for the first, 1.05 for the second.

Going from LRMKQLLSGPALPHSCASSALLSSQT [LCN12] to KEENKQNQPPHHRVLQQDMHTIGA [CDCA7L], the median enrichment falls from 30.4 to 11.9.

First: RKTWPENPQVLQRKTELGKGESWKDGAD [ABHD15]
Second: KPSEFSL [CD163]
The median enrichment of the first is higher: 1.61 for the first, 0.535 for the second.

First: LSPQMGAEIFQSLEFFQ [ZNF112]
Second: WVVGSPADGSTWTWG [GABARAPL1]
The median enrichment of the first is lower: 0.686 for the first, 6.43 for the second.

Compared with “EGLATPVKAVLLLDTISSSGRAVERESNFLLEEYLCLLTLN [CDC14A]”, “WPLGRPPAQLPCPPPPSSSGFSVLGRLSWGRRWEGRDQLSSLAGKRGCGSQGGLQGTGMSGGHQAQRKRKQREFTGPPEKSQS [CRHR2]” is lower in median enrichment: 6.01 for the first, 1.19 for the second.

First: WWSCDVHEVLPHALEGSESRVNCPADILLGFLA [SLC7A6OS]
Second: CSLG [MAGEC2]
The median enrichment of the first is higher: 8.62 for the first, 0.658 for the second.

Going from NNNNNNNNN [Asn09] to “LLGGPGRRVPPSPCQGPGDPLPGCLRLLLRRGNAKKEKEKPRARPLPPAVHCAASSVPGLTVPLSSAPARQGTCSQPWVDLFF [NRXN2]”, the median enrichment rises from 0.367 to 6.99.

First: RTRIPNYISTDAFHFNSS [SAMSN1]
Second: LRLIIYQEC [PKIB]
The median enrichment of the first is lower: 2.43 for the first, 6.92 for the second.

Compared with WFST [SEMA3D], LPNFTSSGESLTLNQRPSTALAPQTSP [ABCB5] is lower in median enrichment: 2.02 for the first, 0.355 for the second.

Compared with WCSYLFFSSLS [LAMTOR5], YRRIYVLFKQEKVTLPMLSPLHNI [CDH10] is lower in median enrichment: 13.3 for the first, 8.74 for the second.

First: GCVLSQIYLLD [HYPK]
Second: CGLGWAGARRAAGWPLGGQDGTVGTEVGGRGPSGLN [TNFRSF8]
The median enrichment of the first is higher: 11.9 for the first, 5.21 for the second.

Going from KCDKVQPSDLIIHKIIYT [ZNF679] to QKPYEYCEYGKAI [ZNF569], the median enrichment falls from 15.1 to 0.563.

Compared with RGPALPPCTSPGAERS [PRMT1], RQRPPAPALPQPSY [SART1] is lower in median enrichment: 1.08 for the first, 0.558 for the second.

Compared with WQRRS [GIMAP1], “YSGLPVASSSTTELQTNHPKCRLDGEGKDWGGRVNSEGCPLPIPPGP [PODXL]” is higher in median enrichment: 0.693 for the first, 21.5 for the second.

Going from “YKWQQNLTPRPANSASLVTLFWLLDGFHSSLGFVCEYCLLCFVFNCNG [OR7E24]” to IIIIII [Ile06], the median enrichment rises from 6.78 to 8.61.

Going from LNE [ZCCHC2] to LKQPV [RIC3], the median enrichment rises from 0.346 to 1.01.

Going from HHH [His03] to “PARVSGPRSIENTTTMARWKGLLVPASSCPPWCRWPGQPTGLGTGQAGPGRGLSLGGNKSRPTRRCCSGSRCRCRDKSAAVSG [MLST8]”, the median enrichment rises from 0.477 to 9.

First: STFKAFVK [GATA1]
Second: WLEWIYDVPLRRSISATILI [HMGCLL1]
The median enrichment of the first is lower: 0.381 for the first, 12.2 for the second.

Compared with ETSSGQNRRVPNYVLKP [SLC10A2], KLSNH [WDR27] is higher in median enrichment: 0.355 for the first, 0.453 for the second.

Compared with “LDPQVPLSKAENVHIPHWHFPKDKNCPRHILSV [VSX1]”, RRSPVCPVKTEIN [TM9SF2] is lower in median enrichment: 10 for the first, 0.793 for the second.

First: QRLAPACTPAPAAGSPQSQPFGTVLTL [ABCG4]
Second: VSGIMRRPWGMN [Degron APPBP2]
The median enrichment of the first is higher: 28.4 for the first, 10.2 for the second.

First: MMMMMMMM [Met08]
Second: YKKRLLLGLDR [Degron FEM1B]
The median enrichment of the first is lower: 8.55 for the first, 9.09 for the second.

First: LADP [AKAP4]
Second: RQSWCCRPIGRSWKASGCVPAMSWHWQSWRRRRANPRAQRTLRKPAGAESCVGHPTRHPSSLRRPVGRQGSRGFALLLSSRVM [RAB15]
The median enrichment of the first is lower: 0.662 for the first, 3.13 for the second.

Compared with YGLQKNWPWGTKAFFSGLLPRP [KANK4], QNNVSYFSIKDHLKLLIPNIN [DMAC2L] is lower in median enrichment: 43.3 for the first, 12.2 for the second.

First: QKMTQKLEPTKLLTPC [ADGRL3]
Second: YSYSVMTLVIFCVL [HTR1D]
The median enrichment of the first is lower: 1.01 for the first, 15.3 for the second.

Compared with YKYTLTERDNRQRGSVAEDPLLCLY [TNIP3], SDFDHLNFL [IL1RL1] is lower in median enrichment: 7.19 for the first, 0.533 for the second.

First: GSVQGFLGPSCLS [KCNA10]
Second: GVWLSHGIPGKGLTQ [PTPA]
The median enrichment of the first is lower: 0.463 for the first, 2.08 for the second.

First: YSCVVSLLEIELA [DGKB]
Second: WNRIEQNRIE [PCSK5]
The median enrichment of the first is higher: 7.27 for the first, 0.778 for the second.

Going from SPIQKFFLILFHLPISC [TRIO] to “RGGRTSNLPKRLPCPNPFITPSFRHPQPLLAQKENWGLRVGTQA [TNF]”, the median enrichment rises from 7.34 to 7.66.

Compared with LIPQPGLPVHLLTLLKSSIVVIL [CD46], SRL [ICAM4] is lower in median enrichment: 10.7 for the first, 0.718 for the second.

First: LLLLLLLL [Leu08]
Second: KITF [SNCAIP]
The median enrichment of the first is higher: 6.62 for the first, 0.77 for the second.

First: TTMERWAVAMVDGLPGWAFELALGTTRLSLSSHGTQKCAAMLPRVLSPHLSQPSWRPGLSLQPLGPALIAGGQALDLEGLAHP [ADGRG1]
Second: MMMMM [Met05]
The median enrichment of the first is lower: 5.12 for the first, 5.18 for the second.

First: LFRCYSSLLKDDENAECLFKCF [GABRA4]
Second: LLAG [QKI]
The median enrichment of the first is higher: 13.1 for the first, 4.55 for the second.

First: SNQFLGLTAM [BTN2A1]
Second: GRGMASGREGGIVGGQGSGFGSRWEQGLVKLFVSGPQ [PAQR7]
The median enrichment of the first is lower: 0.367 for the first, 12.5 for the second.

Compared with YQNNGFL [GNL3], RFLVTA [GXYLT1] is higher in median enrichment: 1.22 for the first, 2.37 for the second.

First: SLYKKVGTMAAG [Degron KLHDC3]
Second: TTTTT [Thr05]
The median enrichment of the first is higher: 7.34 for the first, 0.336 for the second.

First: CYSK [FAM162B]
Second: QGNWALPHVFLLPPRDSNDMYSHLGHACLPNTIWSWTTFDTNQSYWTRPLEDLKYTSHAVVYLGCDSLSNAALGKDESDLQGE [APOBEC2]
The median enrichment of the first is lower: 0.641 for the first, 6.1 for the second.

First: YAVGTESEYF [GFRA2]
Second: WRCRHPSPIIKST [CPS1]
The median enrichment of the first is lower: 0.617 for the first, 8.4 for the second.

Compared with SATCPKA [NOL4L], YIIHCIFYFYHILHIQQNLYVVIGII [ELMOD2] is higher in median enrichment: 0.348 for the first, 7.8 for the second.

Going from LACPFCPVGPQAHSGVTEA [TLX1] to RLQSVVLVPLSQCRLVFLHILSMA [CDC16], the median enrichment rises from 6.73 to 7.48.

Going from “CLGKAGHKNLHEQYFFLNRMFYYSSQVLECLHTII [FAM24A]” to LAWN [CLRN1], the median enrichment falls from 4.34 to 0.652.

Going from KHLHVLSNFACPFSSVSE [CYB5R2] to RGPSETVYALTST [KDELR3], the median enrichment falls from 2.44 to 1.55.

First: RTFATVYFKNKFKLFYHFI [ABCB4]
Second: YQAQLQKDLTCAHKILL [LCN6]
The median enrichment of the first is lower: 7.31 for the first, 7.65 for the second.

Going from YMSEHGLSQACLHGIRLATPARPPGWFFSS [TJP2] to “WGHIQDNYTFAQPGIQMKVKMLEELVSRIDEQVHRHLDQHEVRYLQFAFRWMNNLLMREVPLRCTIRLWDTYQSEPDGFSHFH [TBC1D22A]”, the median enrichment rises from 4.38 to 11.6.

Compared with LPDFGAAEAT [ELP6], CHRGKRRKSC [CLDN1] is higher in median enrichment: 0.429 for the first, 0.437 for the second.

Going from SKNQRGSEKPRET [CDKN2A] to CVF [LYRM7], the median enrichment rises from 0.493 to 0.777.

Going from RNLNGHYKLSNST [ARMC4] to KFRSPHFSAPRMVLFIFHHL [SLC43A3], the median enrichment rises from 1.99 to 9.56.

Compared with KRRIYVLFKQEKVTLPMLSPLHNI [CDH10], WSRS [LCE3E] is lower in median enrichment: 4.44 for the first, 1.42 for the second.

First: YILYNCEINLR [OR4F4]
Second: QRCEGIGETLGWLVMVSIAGHQKLDS [B4GALNT2]
The median enrichment of the first is higher: 5.6 for the first, 4.77 for the second.

Compared with “PEPGWGISAGQRRRLSQLFPDIQGHCSLLPSRTSLLPPTMAGGEQVSQKHPVPRMVLCACPSLLGLPFPLLREDVSLLTCTLA [KIRREL1]”, DDDDDD [Asp06] is lower in median enrichment: 4.27 for the first, 0.38 for the second.

First: IIIIIIII [Ile08]
Second: FLGTHSHAHCRSINSNPHFRPKIMRPHLVSTFPRPCSKPNPFLPSGSQNLLSPTATTVLPDFSHSNHSRPAMGNRPSPSVLVK [RNF39]
The median enrichment of the first is higher: 5.38 for the first, 4.59 for the second.

First: SGCHGRLSPSIL [KRTAP6-1]
Second: RCKPPYESTVADRRRGGCCSCRSINMCCMSFLLFF [LMO7]
The median enrichment of the first is lower: 0.506 for the first, 22.4 for the second.

Going from LKH [HOXA2] to YVCCLPSPSGHTLLYHTTGLDSGWRQIDTV [LIG3], the median enrichment rises from 0.608 to 5.91.

Going from WSLTRSLISRSTCVFIPPGN [FLT1] to RQGPPLFWTP [CDHR2], the median enrichment falls from 4.28 to 1.05.

Compared with WGWKGPEG [SLC35B2], YLISYYIF [PCDHB8] is higher in median enrichment: 1.98 for the first, 5 for the second.

Going from “SNIWLRCHWLRPTRSSFGWCRDHMHIIPGINTELFVNIAAPVF [LRRC6]” to FFFFFFF [Phe07], the median enrichment falls from 12.4 to 7.66.

Going from “WAWTLEKEARSQPLAGQGRRPQEPSPPLLCVGTGGPWPVPGHSGQGPRDISTRSWRAVRIHSACPALAGQRQGRTFGKTKTVG [TCF15]” to “KTQMRASLRLPETARPKSQVQSFPTPLKFIVSSREKQIPIHPTNRCIVWVLEVPSKLLLVRLG [PPEF1]”, the median enrichment rises from 5.34 to 14.2.

Going from “LPAASLHAPRSSLHGSPGRWQTMLRLHQGHRGAEGPMGEERRALLGKVGFLDPRDKLFRCHNVEESTWGTTVLVQVGLGKCTS [IGHMBP2]” to RNRGLNVFRVRMP [PARD6B], the median enrichment rises from 3.92 to 4.57.

Going from “LPAIDNVAGTSASPLQPSNFPGTLLSAPEEGAVVSCCLWAPASSAVLGSVLLASVNNKATVCSGICGFVHSVTCHLHRALMAG [MCM5]” to LSEQVNSRTGAEALPKMK [UVRAG], the median enrichment falls from 5.35 to 0.405.

Compared with QTLGNSISCIFDQIVTSFCI [RAB18], WPYWLTPENGLLLDGHGRINFSKMFWVGVE [ACTL8] is lower in median enrichment: 5.83 for the first, 1.37 for the second.

First: YALDKNLNRKNNSKAYLMKQ [CYLC2]
Second: RSGLRRRRHRGE [Degron APPBP2]
The median enrichment of the first is lower: 2.34 for the first, 6.28 for the second.

First: QKILPSLVVGTDRIHLTQTSSFTDFNYLFLKT [WSB1]
Second: QFLQDTVPLPFFDQLSLVASSLHKM [FCF1]
The median enrichment of the first is lower: 2.9 for the first, 14.2 for the second.

First: SDPAGSINLDAWTL [MYL5]
Second: RVSSPTRSLARPLALQLLFGGGIPHSFLGTHSHAHCRSINSNPHFRPKIMRPHLVSTFPRPCSKPNPFLPSGSQNLLSPTATT [RNF39]
The median enrichment of the first is lower: 0.467 for the first, 6.99 for the second.

Compared with QGDL [DPYD], WPPPASLSPHP [TTC24] is lower in median enrichment: 0.394 for the first, 0.329 for the second.

QLRILKRSHGKTS [NBN] gave a median enrichment of 7.35.

With RGASSSE [SLC1A6] the median enrichment was 0.611 and 0.437.
With YEAVMRMVL [SETDB1] the median enrichment was 4.84 and 3.68.
